Reference: patent publication US20070071759A1

Target: T1, NKG2D receptor on NK cells freshly isolated from C57BL6 or on KY-2 cells (murine NK cell line) (murine) (UniProt O54709)
T1 sequence (looked up): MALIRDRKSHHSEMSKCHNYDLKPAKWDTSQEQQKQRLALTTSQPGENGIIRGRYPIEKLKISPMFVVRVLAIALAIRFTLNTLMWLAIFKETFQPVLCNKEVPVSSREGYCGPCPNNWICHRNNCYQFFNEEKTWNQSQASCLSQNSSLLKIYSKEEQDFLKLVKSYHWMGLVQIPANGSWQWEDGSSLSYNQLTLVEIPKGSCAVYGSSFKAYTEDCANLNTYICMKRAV
Assay: cell-based or functional assay

For “anti-HER2 IgG3-CH3-Rae-1β fusion protein (from UniProt P01860 1-377; O08603 29-229)”, the NK cell-mediated killing (direct lysis, KY-2 effector cells) was 15 to 59% and the redirected lysis of P815 or J774 cells by KY-2 cells was less than 22%.
